From patent US20210115130A1 (Innovent, published 2021)

B1: 17D1 humanized antibody (antibody, human IgG1, kappa)
heavy: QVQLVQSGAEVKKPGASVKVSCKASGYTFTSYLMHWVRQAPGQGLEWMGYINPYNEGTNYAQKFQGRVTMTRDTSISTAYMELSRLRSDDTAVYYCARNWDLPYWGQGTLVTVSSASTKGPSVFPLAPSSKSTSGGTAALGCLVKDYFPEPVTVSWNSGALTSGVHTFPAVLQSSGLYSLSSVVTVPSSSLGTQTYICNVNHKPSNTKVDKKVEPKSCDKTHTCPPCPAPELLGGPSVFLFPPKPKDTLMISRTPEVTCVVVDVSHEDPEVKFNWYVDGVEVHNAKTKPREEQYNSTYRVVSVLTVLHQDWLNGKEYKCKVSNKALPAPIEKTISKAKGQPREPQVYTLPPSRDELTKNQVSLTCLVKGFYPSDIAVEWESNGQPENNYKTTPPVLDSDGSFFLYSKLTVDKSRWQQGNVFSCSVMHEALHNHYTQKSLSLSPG
light: DIQMTQSPSSLSASVGDRVTITCRASQSISDYLHWYQQKPGKAPKLLIKYASQSMSGVPSRFSGSGSGSDFTLTISSLQPEDFATYYCQQGHSFPFTFGQGTKLEIKRTVAAPSVFIFPPSDEQLKSGTASVVCLLNNFYPREAKVQWKVDNALQSGNSQESVTEQDSKDSTYSLSSTLTLSKADYEKHKVYACEVTHQGLSSPVTKSFNRGEC
notes: Biotinylated for the FcRn assay; also called humanized antibody 17D1; copies: 2 + 2
B2: 17D1-YTE (antibody, human IgG1, kappa)
heavy: QVQLVQSGAEVKKPGASVKVSCKASGYTFTSYLMHWVRQAPGQGLEWMGYINPYNEGTNYAQKFQGRVTMTRDTSISTAYMELSRLRSDDTAVYYCARNWDLPYWGQGTLVTVSSASTKGPSVFPLAPSSKSTSGGTAALGCLVKDYFPEPVTVSWNSGALTSGVHTFPAVLQSSGLYSLSSVVTVPSSSLGTQTYICNVNHKPSNTKVDKKVEPKSCDKTHTCPPCPAPELLGGPSVFLFPPKPKDTLYITREPEVTCVVVDVSHEDPEVKFNWYVDGVEVHNAKTKPREEQYNSTYRVVSVLTVLHQDWLNGKEYKCKVSNKALPAPIEKTISKAKGQPREPQVYTLPPSRDELTKNQVSLTCLVKGFYPSDIAVEWESNGQPENNYKTTPPVLDSDGSFFLYSKLTVDKSRWQQGNVFSCSVMHEALHNHYTQKSLSLSPG
light: DIQMTQSPSSLSASVGDRVTITCRASQSISDYLHWYQQKPGKAPKLLIKYASQSMSGVPSRFSGSGSGSDFTLTISSLQPEDFATYYCQQGHSFPFTFGQGTKLEIKRTVAAPSVFIFPPSDEQLKSGTASVVCLLNNFYPREAKVQWKVDNALQSGNSQESVTEQDSKDSTYSLSSTLTLSKADYEKHKVYACEVTHQGLSSPVTKSFNRGEC
notes: Biotinylated for the FcRn assay; also called 17D1-YTE antibody; copies: 2 + 2
B3: guselkumab (antibody)
chain 1: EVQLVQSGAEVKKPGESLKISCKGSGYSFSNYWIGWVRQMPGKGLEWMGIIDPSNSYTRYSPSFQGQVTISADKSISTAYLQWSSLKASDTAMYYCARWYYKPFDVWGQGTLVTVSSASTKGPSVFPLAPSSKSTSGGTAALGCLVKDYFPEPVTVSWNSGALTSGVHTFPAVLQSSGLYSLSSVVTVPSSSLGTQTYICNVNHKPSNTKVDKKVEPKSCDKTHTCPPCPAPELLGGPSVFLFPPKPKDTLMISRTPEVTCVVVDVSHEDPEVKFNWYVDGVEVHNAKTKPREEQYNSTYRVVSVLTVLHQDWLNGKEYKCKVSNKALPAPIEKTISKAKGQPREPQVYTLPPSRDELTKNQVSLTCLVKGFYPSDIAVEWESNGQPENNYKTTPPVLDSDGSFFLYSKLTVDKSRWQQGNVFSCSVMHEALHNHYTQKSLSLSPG
chain 2: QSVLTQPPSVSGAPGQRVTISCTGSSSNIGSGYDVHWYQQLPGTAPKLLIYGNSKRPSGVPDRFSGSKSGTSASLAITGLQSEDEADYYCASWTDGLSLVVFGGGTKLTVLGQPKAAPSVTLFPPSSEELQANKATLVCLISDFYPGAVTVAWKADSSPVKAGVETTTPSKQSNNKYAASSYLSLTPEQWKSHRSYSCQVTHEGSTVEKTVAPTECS

Columns and labels:
[1] = target: T1, IL-23 (R&D Systems, Catalog No. 1290-IL-500/CF) (UniProt Q9NPF7 20-189; P29460 23-328); test: cell-based or functional assay
T1 sequence (looked up) 1: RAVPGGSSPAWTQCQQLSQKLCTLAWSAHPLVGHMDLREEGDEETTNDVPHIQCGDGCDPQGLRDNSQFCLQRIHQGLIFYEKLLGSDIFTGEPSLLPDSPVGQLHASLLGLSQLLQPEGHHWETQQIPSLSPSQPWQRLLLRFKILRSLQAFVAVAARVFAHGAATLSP
T1 sequence (looked up) 2: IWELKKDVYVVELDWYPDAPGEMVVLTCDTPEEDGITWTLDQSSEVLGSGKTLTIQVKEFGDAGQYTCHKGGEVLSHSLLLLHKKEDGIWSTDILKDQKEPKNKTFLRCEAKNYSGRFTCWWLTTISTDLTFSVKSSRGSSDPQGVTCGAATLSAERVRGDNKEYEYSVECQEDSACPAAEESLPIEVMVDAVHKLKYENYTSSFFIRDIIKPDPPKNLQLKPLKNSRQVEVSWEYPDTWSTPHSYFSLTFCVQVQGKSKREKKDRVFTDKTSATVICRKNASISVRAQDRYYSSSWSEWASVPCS

[2] = target: T2, human IL-12 (ACRO Biosystems, Cat #IL2-H4210) (human, UniProt P29459 23-219; P29460 23-328); test: ForteBio BLI, antibody loaded on AHQ sensor
T2 construct: Bought protein
T2 sequence (looked up) 1: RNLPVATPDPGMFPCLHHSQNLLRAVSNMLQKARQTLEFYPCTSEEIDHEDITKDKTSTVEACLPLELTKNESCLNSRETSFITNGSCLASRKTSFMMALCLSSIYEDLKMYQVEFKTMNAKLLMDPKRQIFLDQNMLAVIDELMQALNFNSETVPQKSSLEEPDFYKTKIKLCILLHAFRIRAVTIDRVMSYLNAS
T2 sequence (looked up) 2: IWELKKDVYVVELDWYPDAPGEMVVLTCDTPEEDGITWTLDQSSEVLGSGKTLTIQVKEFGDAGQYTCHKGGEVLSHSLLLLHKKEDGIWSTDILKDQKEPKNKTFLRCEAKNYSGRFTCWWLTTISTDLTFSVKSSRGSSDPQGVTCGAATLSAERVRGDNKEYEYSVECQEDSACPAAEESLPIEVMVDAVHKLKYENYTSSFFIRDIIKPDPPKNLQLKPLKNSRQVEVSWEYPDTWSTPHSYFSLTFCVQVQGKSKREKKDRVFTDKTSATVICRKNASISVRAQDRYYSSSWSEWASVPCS
Procedure: (§1) The ForteBio affinity assay was performed according to the prior art (Estep, P, et al., High throughput solution based measurement of antibody-antigen affinity and epitope binning MAbs, 2013.5(2): p. 270-8). Briefly, the sensor was equilibrated offline in an assay buffer for […], and was equilibrated online for 60 s to establish a baseline. The purified antibodies obtained as described above were loaded online onto an AHQ sensor (ForteBio) for the ForteBio affinity assay. The sensor with the loaded antibodies was then exposed to 100 nM […] antigens for […] before transferring the sensor to the assay buffer for […] of dissociation to measure the dissociation rate. The kinetic analysis was performed using a 1:1 binding model.
(§2) The equilibrium dissociation constant (KD) for binding of the above 17D1 humanized antibody and 17D1-YTE antibody of the present invention to human interleukin protein human IL-12 (ACRO Biosystems, Cat #IL2-H4210) or human IL-12p40 (ACRO Biosystems, Cat #NK2-H52H7) of the same family was measured by biological optical interferometry (ForteBio) (Table 18).

[3] = target: T3, human IL-12p40 (ACRO Biosystems, Cat #NK2-H52H7) (human, UniProt P29460 23-328); test: ForteBio BLI, antibody loaded on AHQ sensor
T3 construct: Bought protein
T3 sequence (looked up): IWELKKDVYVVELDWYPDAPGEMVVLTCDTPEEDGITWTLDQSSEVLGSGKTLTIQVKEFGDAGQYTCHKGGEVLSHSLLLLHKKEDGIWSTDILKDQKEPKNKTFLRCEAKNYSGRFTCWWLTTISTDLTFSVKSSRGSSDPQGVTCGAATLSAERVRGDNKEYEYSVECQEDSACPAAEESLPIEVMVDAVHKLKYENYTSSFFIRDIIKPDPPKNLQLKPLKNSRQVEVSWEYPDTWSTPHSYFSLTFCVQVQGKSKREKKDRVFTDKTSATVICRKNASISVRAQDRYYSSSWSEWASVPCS
Procedure: as §1, §2

[4] = target: T4, human IL23 protein (human IL12p40 - linker - human IL23p19 - His tag) (human, UniProt P29460 23-328; Q9NPF7 21-189); test: ForteBio BLI, antibody on AHQ sensor, 1:1 model
T4 construct: range 23-328;range 21-189; Single-chain fusion expressed in Expi293 cells; also called IL-23 antigen
T4 sequence: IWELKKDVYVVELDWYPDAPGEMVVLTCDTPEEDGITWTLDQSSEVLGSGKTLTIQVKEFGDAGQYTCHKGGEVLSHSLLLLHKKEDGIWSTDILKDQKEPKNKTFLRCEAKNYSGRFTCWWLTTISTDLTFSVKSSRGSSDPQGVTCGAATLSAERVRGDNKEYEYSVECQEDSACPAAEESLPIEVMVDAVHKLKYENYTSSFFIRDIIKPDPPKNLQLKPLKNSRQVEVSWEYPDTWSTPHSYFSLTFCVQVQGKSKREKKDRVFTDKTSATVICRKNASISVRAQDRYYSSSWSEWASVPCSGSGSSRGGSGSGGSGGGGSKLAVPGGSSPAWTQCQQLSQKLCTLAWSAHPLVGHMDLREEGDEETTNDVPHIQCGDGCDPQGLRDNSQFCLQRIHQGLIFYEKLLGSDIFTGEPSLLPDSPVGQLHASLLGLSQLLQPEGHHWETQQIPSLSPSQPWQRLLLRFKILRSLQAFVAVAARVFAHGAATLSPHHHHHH
Procedure: The equilibrium dissociation constant (KD) of the above 17D1 humanized antibody and 17D1-YTE of the present invention to human IL-23p19 was measured by biological optical interferometry (ForteBio).
as §1

[5] = target: cynomolgus monkey IL23 protein (cynomolgus IL12p40 - linker - cynomolgus IL23p19 - His tag) (cynomolgus monkey); test: ForteBio BLI, antibody on AHQ sensor, 1:1 model
Procedure: as §1

[6] = target: T5, human FcRn (Acro, Catalog No. FCM-H5286) (human, UniProt P55899 24-297; P61769 21-119); test: ForteBio Octet RED96 BLI, biotinylated antibody on SA sensor, FcRn in solution, 1:1 model
T5 construct: Bought protein
T5 sequence (P55899 24-297 limits assumed, chain 1 of 2): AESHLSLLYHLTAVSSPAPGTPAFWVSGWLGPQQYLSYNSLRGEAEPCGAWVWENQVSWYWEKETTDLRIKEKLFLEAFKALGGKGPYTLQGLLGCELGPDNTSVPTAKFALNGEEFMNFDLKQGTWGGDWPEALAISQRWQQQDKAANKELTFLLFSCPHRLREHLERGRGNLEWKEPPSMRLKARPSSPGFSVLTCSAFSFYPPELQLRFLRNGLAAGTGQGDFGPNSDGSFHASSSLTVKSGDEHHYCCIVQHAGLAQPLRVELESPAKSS
T5 sequence (P61769 21-119 limits assumed, chain 2 of 2): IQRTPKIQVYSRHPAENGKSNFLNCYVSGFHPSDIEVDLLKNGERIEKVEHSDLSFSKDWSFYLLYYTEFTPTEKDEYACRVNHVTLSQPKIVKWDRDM
Procedure: First, the 17D1 humanized antibody, 17D1-YTE, and Gmab (guselkumab) prepared as described above were labeled with biotin, with the molar ratio of antibody to biotin being 1:3. The biotin was removed using a desalting column and the labeled samples were re-measured and stored for later use.
(§3) An appropriate amount of SA sensor (Fortebio, Catalog No. 18-5019) was soaked in the analysis buffer for 30 min. The biotinylated 17D1 humanized antibody, 17D1-YTE, and Gmab were diluted to 100 nM, and human FcRn (Acro, Catalog No. FCM-H5286) was serially two-fold diluted to 5 concentrations (5, 2.5, 1.25, 0.625, 0.3125 μg/mL). The sensor was first equilibrated in the analysis buffer for 120 s. Then the biotinylated antibodies were loaded on the SA sensor for 100 s of immobilization, and the sensor was equilibrated for another 120 s after immobilization. After the baseline was stabilized, the serially diluted FcRns binded to the sensors with the same antibody immobilization level. After 100 s for binding, the sensors were equilibrated in analysis buffer for 120 s to measure the binding and dissociation. The experimental data were analyzed using a 1:1 model.

[7] = target: T5, human FcRn (Acro, Catalog No. FCM-H5286); test: ForteBio Octet RED96 BLI, biotinylated antibody on SA sensor
Procedure: In this assay, the ForteBio Octet RED96 System was used to detect the kinetic constant (KD) for binding of 17D1 humanized antibody and 17D1-YTE to human FcRn (Acro, Catalog No. FCM-H5286). The affinity of 17D1-YTE to human FcRn was three times those of 17D1 humanized antibody and reference antibody Gmab.
as §3

Binder	IC50 (inhibition of IL-23-induced IL-17 secretion in mouse splenic lymphocytes, IL-17 ELISA) [1] [µg/mL]	binding result [2]	binding result [3]	Kd [4] [nM]	koff [4] [s⁻¹]	kon [4] [M⁻¹ s⁻¹]	Kd [5] [nM]	Response [5]	koff [5] [s⁻¹]	kon [5] [M⁻¹ s⁻¹]	Kd [6] [nM]	koff [6] [s⁻¹]	kon [6] [M⁻¹ s⁻¹]	fold affinity against 17D1 humanized antibody and Gmab [7] [fold]
B1	0.113	no binding (tested: 100 nM)	no binding (tested: 100 nM)	1.75	0.000164	93700	1.67	0.215	8.44e-05	50400	12.3	0.0141	1.15e+06	–
B2	0.114	no binding (tested: 100 nM)	no binding (tested: 100 nM)	0.611	5.69e-05	93100	0.37	0.207	2.16e-05	58400	3.34	0.0033	988000	3
B3	0.124	–	–	1.04	0.00012	115000	0.941	0.284	5.8e-05	61600	13.2	0.0148	1.12e+06	–
